In the test the target is Sho1 SH3 (SHO1_YEAST), P40073. The test is described as follows: SPOT array.
Sho1 SH3 (SHO1_YEAST), P40073, sequence (P40073 295-366): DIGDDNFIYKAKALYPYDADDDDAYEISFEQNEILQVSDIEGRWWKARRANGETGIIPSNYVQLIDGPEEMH
Molecule DSGPQRPKRTRAKG displayed a normalised SPOT signal, Boehringer light units (BLU); mean over the file's lines of this peptide of 202.
On to DVLPAGPVRSLEGA [122-135 Hypothetical ORF], for which the normalised SPOT signal, Boehringer light units (BLU); mean over the file's lines of this peptide turned out to be 115.
Regarding ENKPFKPPRRVGSN [41-54 Putative helicase similar to RAD54], the normalised SPOT signal, Boehringer light units (BLU); mean over the file's lines of this peptide was found to be 164.
DLPPKFPEKPVHLV [186-199 Hypothetical ORF] registered a normalised SPOT signal, Boehringer light units (BLU); mean over the file's lines of this peptide of 65.8.
In turn, SQRPGSPGRYKLVR [174-187 gamma subunit of translational initiation factor eIF-2] yielded a normalised SPOT signal, Boehringer light units (BLU); mean over the file's lines of this peptide of 178.
With DSLPFAPLRKVYEL [139-152 Hypothetical ORF] the figure was 96.8; with DPLPYSPLKLYDQK [382-395 Transcription factor (fork head domain)], 144; with EHKPVSPDKIGTFT [81-94 transcription factor], 0.
In turn, EILPVKPTKKSSKK [808-821 involved in bud site selection] came in with a normalised SPOT signal, Boehringer light units (BLU); mean over the file's lines of this peptide of 281.
For ERDPNMPKRPTNAY [88-101 HMG1-box containing protein] the value was 83.8; for ELPPTHPIRLGLAL [164-177 Homolog of mammalian 14-3-3 proteins;member of conserved eukaryotic 14-3-3 gene family], 161.
Molecule EYSPLVPSKMSADK [356-369 mitochondrial protein; (putative) chaperone] gave a normalised SPOT signal, Boehringer light units (BLU); mean over the file's lines of this peptide of 183.
Take EAAPQLPSRSSAAP [505-518 Actin binding protein]: the normalised SPOT signal, Boehringer light units (BLU); mean over the file's lines of this peptide came out at 86.7.
Turning to EILPQAPAKKVFES [379-392 Hypothetical ORF], the normalised SPOT signal, Boehringer light units (BLU); mean over the file's lines of this peptide turned out to be 132.
Turning to DSLPKLPFRSWGQP [490-503 Amino acid permease], the normalised SPOT signal, Boehringer light units (BLU); mean over the file's lines of this peptide is 333.
Take EYFPISPEKKEEME [591-604 Hypothetical ORF]: the normalised SPOT signal, Boehringer light units (BLU); mean over the file's lines of this peptide was 56.7.
In turn, DGRPHSPLRARSAT [51-64 Involved in protecting the cell against bleomycin damage] came in with a normalised SPOT signal, Boehringer light units (BLU); mean over the file's lines of this peptide of 37.1.
The molecule ENVPLYPSRRNIWE [81-94 Hypothetical ORF] registered a normalised SPOT signal, Boehringer light units (BLU); mean over the file's lines of this peptide of 178.
With FSHPLSPLKSNFID [74-87 Hypothetical ORF] the figure was 164.
ENAPANPSKALKVK [549-562 Arf-binding protein] displayed a normalised SPOT signal, Boehringer light units (BLU); mean over the file's lines of this peptide of 69.7.
EVSPVEPKRTENER [687-700 putative serine/threonine kinase] returned a normalised SPOT signal, Boehringer light units (BLU); mean over the file's lines of this peptide of 182.
EYHPIKPLRSSSST [234-247 Hypothetical ORF] showed a normalised SPOT signal, Boehringer light units (BLU); mean over the file's lines of this peptide of 105.
For DLQPLEPKKAAAST [805-818 " contains 3 SH3 domains, interacts with Bee1p"], the normalised SPOT signal, Boehringer light units (BLU); mean over the file's lines of this peptide was determined as 220.
As to EIPPPLPPKIMVHS [528-541 Ubiquitin-specific protease], the normalised SPOT signal, Boehringer light units (BLU); mean over the file's lines of this peptide was 5100.
As for EIAPLIPKKPALRK [597-610 component of vacuolar membrane protein complex], the normalised SPOT signal, Boehringer light units (BLU); mean over the file's lines of this peptide is 183.
On to DVYPHEPAKNGEGS [311-324 3-phosphoglycerate dehydrogenase], for which the normalised SPOT signal, Boehringer light units (BLU); mean over the file's lines of this peptide turned out to be 132.
The molecule DSIPLEPKKAKHLM [82-95 50-kDa subunit of ORC] registered a normalised SPOT signal, Boehringer light units (BLU); mean over the file's lines of this peptide of 133.
For the molecule FDFPLSPVKHENPT [196-209 Product of gene unknown], the normalised SPOT signal, Boehringer light units (BLU); mean over the file's lines of this peptide turned out to be 27.7.
On to ATVPSAPYRKQIIS [11-24 nuclear pore protein], for which the normalised SPOT signal, Boehringer light units (BLU); mean over the file's lines of this peptide was 122.
DFTPVEPSKMREYI [629-642 MCM3 protein homolog (S. cerevisiae)] returned a normalised SPOT signal, Boehringer light units (BLU); mean over the file's lines of this peptide of 91.
With AVDPENPKKLASKF [384-397 Hypothetical ORF], the normalised SPOT signal, Boehringer light units (BLU); mean over the file's lines of this peptide came to 83.2.
For the molecule SREPEVPQRLLTLI [250-263 Hypothetical ORF], the normalised SPOT signal, Boehringer light units (BLU); mean over the file's lines of this peptide worked out at 105.
With ERDPNAPKKPLTVF [100-113 35 kDa protein belonging to the high mobility group (HMG) fanily of proteins] the figure was 157.
On to DRPPDVPRKIIVGR [301-314 ubiquitin carboxyl-terminal hydrolase], for which the normalised SPOT signal, Boehringer light units (BLU); mean over the file's lines of this peptide was determined as 477.
For DYLPQHPHRTSSLP [109-122 scaffold protein for MAP kinase cascade] the value was 87.8; for DESPIDPSKAPKVP [350-363 Hypothetical ORF], 96.8.
Regarding DERPFRPKRTSRSA [149-162 Hypothetical ORF], the normalised SPOT signal, Boehringer light units (BLU); mean over the file's lines of this peptide amounted to 183.
For the molecule DYLPPVPEKNAGKQ [274-287 Mitochondrial ribosomal protein MRPL35 (YmL35)], the normalised SPOT signal, Boehringer light units (BLU); mean over the file's lines of this peptide was found to be 224.
The molecule ESHPELPNKDVKLD [158-171 putative methylenetetrahydrofolate reductase (mthfr)] came in with a normalised SPOT signal, Boehringer light units (BLU); mean over the file's lines of this peptide of 53.7.
EMIPSSPQRKSVSN [51-64 Product of gene unknown] yielded a normalised SPOT signal, Boehringer light units (BLU); mean over the file's lines of this peptide of 164.
ENFPIVPLKSVAQD [638-651 transcription factor]: the normalised SPOT signal, Boehringer light units (BLU); mean over the file's lines of this peptide came to 45.8.
The molecule ETVPTEPTRYNYQN [1359-1372 negative regulator of early meiotic gene expression] had a normalised SPOT signal, Boehringer light units (BLU); mean over the file's lines of this peptide of 32.8.
DELPSPPLRMVHID [237-250 Hypothetical ORF] registered a normalised SPOT signal, Boehringer light units (BLU); mean over the file's lines of this peptide of 224.
For the molecule DQAPSLPPKPNTQL [158-171 homologous to mouse and human Tsg101 tumor susceptibility genes], the normalised SPOT signal, Boehringer light units (BLU); mean over the file's lines of this peptide was determined as 176.
For EIAPSLPSRNSIPA [471-484 Actin binding protein], the normalised SPOT signal, Boehringer light units (BLU); mean over the file's lines of this peptide came out at 163.
ELEPQHPLRHKSSL [53-66 "glucose repression protein, a component of the Snf1 complex"] returned a normalised SPOT signal, Boehringer light units (BLU); mean over the file's lines of this peptide of 102.
DHKPENPIRTFKDL [90-103 uridine permease] gave a normalised SPOT signal, Boehringer light units (BLU); mean over the file's lines of this peptide of 168.
On to SGFPLLPSKRGVTA [165-178 Hypothetical ORF], for which the normalised SPOT signal, Boehringer light units (BLU); mean over the file's lines of this peptide worked out at 644.
For the molecule ELDPISPLKVPLTA [276-289 involved in cell wall biogenesis], the normalised SPOT signal, Boehringer light units (BLU); mean over the file's lines of this peptide came out at 127.
Take DDTPSIPSKISSKS [1313-1326 component of the mitotic spindle]: the normalised SPOT signal, Boehringer light units (BLU); mean over the file's lines of this peptide amounted to 207.
On to ELPPIKPPRPTSTT [619-632 " contains 3 SH3 domains, interacts with Bee1p"], for which the normalised SPOT signal, Boehringer light units (BLU); mean over the file's lines of this peptide was 102.
Molecule EANPDNPKKLDLKA [783-796 Hypothetical ORF] had a normalised SPOT signal, Boehringer light units (BLU); mean over the file's lines of this peptide of 130.
DYQPLSPPRELDPD [249-262 Hypothetical ORF] registered a normalised SPOT signal, Boehringer light units (BLU); mean over the file's lines of this peptide of 75.3.
SILPAFPSKSSNEQ came in with a normalised SPOT signal, Boehringer light units (BLU); mean over the file's lines of this peptide of 73.6.
Take DSIPVDPEKVVAIV [216-229 acetyl CoA hydrolase]: the normalised SPOT signal, Boehringer light units (BLU); mean over the file's lines of this peptide is 91.

(Values after article PMC314469, “Protein Interaction Networks by Proteome Peptide Scanning” (PLoS Biology, 2004).)
